B1: GLI1_(1-232), wild type, 35S-radiolabeled [modified: [35S]-methionine label; [35S]-methionine label] [human] / GST-SUFU (fusion of GST to full-length human SUFU) [human] (parent complex)
chain 1: MFNSMTPPPISSYGEPCCLRPLPSQGAPSVGTEGLSGPPFCHQANLMSGPHSYGPARETNSCTEGPLFSSPRSAVKLTKKRALSISPLSDASLDLQTVIRTSPSSLVAFINSRCTSPGGSYGHLSIGTMSPSLGFPAQMNHQKGPSPSFGVQPCGPHDSARGGMIPHPQSRGPFPTCQLKSELDMLVGKCREEPLEGDMSSPNSTGIQDPLLGMLDGREDLEREEKREPESV
chain 2: MAELRPSGAPGPTAPPAPGPTAPPAFASLFPPGLHAIYGECRRLYPDQPNPLQVTAIVKYWLGGPDPLDYVSMYRNVGSPSANIPEHWHYISFGLSDLYGDNRVHEFTGTDGPSGFGFELTFRLKRETGESAPPTWPAELMQGLARYVFQSENTFCSGDHVSWHSPLDNSESRIQHMLLTEDPQMQPVQTPFGVVTFLQIVGVCTEELHSAQQWNGQGILELLRTVPIAGGPWLITDMRRGETIFEIDPHLQERVDKGIETDGSNLSGVSAKCAWDDLSRPPEDDEDSRSICIGTQPRRLSGKDTEQIRETLRRGLEINSKPVLPPINPQRQNGLAHDRAPSRKDSLESDSSTAIIPHELIRTRQLESVHLKFNQESGALIPLCLRGRLLHGRHFTYKSITGDMAITFVSTGVEGAFATEEHPYAAHGPWLQILLTEEFVEKMLEDLEDLTSPEEFKLPKEYSWPEKKLKVSILPDVVFDSPLH

Variants of: B1
Assay: GST-SUFU pull-down binding assay with 35S-radiolabeled in vitro-translated GLI1; parent: 8 nM

Row | Kd [nM] | Variant
1 | 21 | chain 1 MFNSMTPPPISSYGEPCCLRPLPSQGAPSVGTEGLSGPPFCHQANLMSGPHSYGPARETNSCTEGPLFSSPRSAVKLTKKRALSISPLSDASLDLQTVIRTSPSSLVAFINSRCTSPGGSYGHLSIGTMEPSLGFPAQMNHQKGPSPSFGVQPCGPHDSARGGMIPHPQSRGPFPTCQLKSELDMLVGKCREEPLEGDMSSPNSTGIQDPLLGMLDGREDLEREEKREPESV [chain 1 S130E]
2 | 67 | chain 1 MFNSMTPPPISSYGEPCCLRPLPSQGAPSVGTEGLSGPPFCHQANLMSGPHSYGPARETNSCTEGPLFSSPRSAVKLTKKRALSISPLSDASLDLQTVIRTEPSSLVAFINSRCTSPGGSYGHLSIGTMSPSLGFPAQMNHQKGPSPSFGVQPCGPHDSARGGMIPHPQSRGPFPTCQLKSELDMLVGKCREEPLEGDMSSPNSTGIQDPLLGMLDGREDLEREEKREPESV [chain 1 S102E]

Source: publication PMC9279676, “ERK2 MAP kinase regulates SUFU binding by multisite phosphorylation of GLI1” (Life Science Alliance, 2022)
